Assay results as given in publication PMC11507936.

What was measured:
[1] = biological target: phosphorylated SARS-CoV-2 Nucleocapsid protein (pN) (SARS-CoV-2) (UniProt P0DTC9); assay: […]
[2] = biological target: SARS-CoV-2 Nucleocapsid protein (N), unmodified (SARS-CoV-2) (UniProt P0DTC9); assay: […]

6xHis-GFP-Nsp3^1–111 (ubiquitin-like domain 1 of SARS-CoV-2 Nsp3) (domain or fragment)
partition coefficient [1]: 2.2
partition coefficient [2]: 12.6

6xHis-GFP-M^104–222 (C-terminal endodomain of the SARS-CoV-2 Membrane protein) (from UniProt P0DTC5 104-222) (domain or fragment)
partition coefficient [1]: 0.3
partition coefficient [2]: 9.8
